Earlier results, collected in publication PMC3968163.

Target: p53 TAD (Homo sapiens) (UniProt P04637)
Assay: ITC

Sequence of Tfb1 PH (P32776 1-115): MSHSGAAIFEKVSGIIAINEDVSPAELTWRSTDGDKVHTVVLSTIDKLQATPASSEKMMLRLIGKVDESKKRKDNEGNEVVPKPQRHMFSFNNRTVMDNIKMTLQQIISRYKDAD
Sequence of p53 TAD (Homo sapiens) (P04637 20-73): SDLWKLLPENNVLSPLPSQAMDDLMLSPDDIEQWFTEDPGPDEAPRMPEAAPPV

Kd: 400 nM
Substance: Tfb1 PH (from UniProt P32776)
